Measured values as given in paper PMC2877039 (Developmental cell, 2010).

T1: His6-tagged full-length Sec15 protein (yeast, UniProt P22224 1-910)
T1 sequence (looked up): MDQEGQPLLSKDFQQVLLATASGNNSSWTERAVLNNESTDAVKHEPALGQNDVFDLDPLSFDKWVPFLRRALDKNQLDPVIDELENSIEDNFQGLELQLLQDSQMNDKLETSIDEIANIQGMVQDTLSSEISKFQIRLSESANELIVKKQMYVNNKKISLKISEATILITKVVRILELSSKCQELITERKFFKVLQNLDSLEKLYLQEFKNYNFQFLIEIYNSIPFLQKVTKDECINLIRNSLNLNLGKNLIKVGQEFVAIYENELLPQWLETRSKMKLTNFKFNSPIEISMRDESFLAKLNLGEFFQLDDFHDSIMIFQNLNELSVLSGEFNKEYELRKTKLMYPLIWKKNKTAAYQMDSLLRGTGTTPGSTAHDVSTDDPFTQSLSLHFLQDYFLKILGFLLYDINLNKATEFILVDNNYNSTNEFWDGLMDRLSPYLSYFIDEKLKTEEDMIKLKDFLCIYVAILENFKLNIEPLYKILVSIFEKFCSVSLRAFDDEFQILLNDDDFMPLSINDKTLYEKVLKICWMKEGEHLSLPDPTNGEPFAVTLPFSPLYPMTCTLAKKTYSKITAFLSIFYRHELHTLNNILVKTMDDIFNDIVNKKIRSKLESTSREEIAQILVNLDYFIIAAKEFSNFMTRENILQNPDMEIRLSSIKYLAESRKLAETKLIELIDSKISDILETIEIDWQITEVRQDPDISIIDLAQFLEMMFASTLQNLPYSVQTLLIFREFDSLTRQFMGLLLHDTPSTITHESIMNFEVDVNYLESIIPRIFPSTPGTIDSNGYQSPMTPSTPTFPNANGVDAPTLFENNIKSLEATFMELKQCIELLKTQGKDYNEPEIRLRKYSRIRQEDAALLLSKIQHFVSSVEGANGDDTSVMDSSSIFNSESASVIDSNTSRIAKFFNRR

B1: GST-Sec2p (wild type) (natural protein, yeast, UniProt P17065 1-759, looked up)
chain: MDASEEAKRVSIQVTSLSTQLIESVDKQSHLEEQLNKSLKTIASQKAAIENYNQLKEDYNTLKRELSDRDDEVKRLREDIAKENELRTKAEEEADKLNKEVEDLTASLFDEANNMVADARKEKYAIEILNKRLTEQLREKDTLLDTLTLQLKNLKKVMHSLDNESTVTNNSNRYSTILSDSATSSSTSLNKVPTSYSLASQDIYSGIVYSPSISSIRYDISLYNEFLKFVAALPRCENIKATSTESKLIRRLVNDEIQPILKIDNASGIGWLVKKTLLSLIIDGLVVVEPLSGVNATYQIGYNSSSPAKQATSNMPKMFKFPLDSPPVAVHAACSFCGESRDDIIEHARMYILKTLHKTDDGKEQVTNTYPLCHWCLLKLRQTCEIFAFLRSLKVGAWHLEKLTTQNITKEDLEKFSEVTKHTKRDGRVSSQDKKTKRLSFMAGLGINSSTKNKPKMEIFSSETNAKPGQPTTNIQRAWLQLCKLRCILHWTHIGIWAVDDSISSKIGPLVEDDSDEDQNDAISVRLQDKALWKQDAKRPFSSSSAEESQKSDAFDFESGDMENEITGESSSDESSSDGSSTDNSTADSSSEDESSLADSTTSSADSSSPESIDNGEGDDTVTKDDKSSIKSANNNEENSDCGDKKGRSIIKKKAPQRKIQKKKLLQDLDDLEEQFREESAIDQTEFENAESNVKQNISSKRASSGDENSKKDNNEKTLKTNLTIGDKTQEQIGENSPSSGLHASSSNDDNFDDAQEQQ

Tests used:
GST-Sec2p (wild type) = biological target: B1; experiment: pull-down
[1] = biological target: T1, His6-tagged full-length Sec15 protein; experiment: pull-down

Row | binding result (GST-Sec2p (wild type)) | binding result [1] | Binder
1 | binds |  | Sec15p C-terminal fragment (a.a. 559–910) (domain or fragment, yeast, UniProt P22224 559-910, looked up) MTCTLAKKTYSKITAFLSIFYRHELHTLNNILVKTMDDIFNDIVNKKIRSKLESTSREEIAQILVNLDYFIIAAKEFSNFMTRENILQNPDMEIRLSSIKYLAESRKLAETKLIELIDSKISDILETIEIDWQITEVRQDPDISIIDLAQFLEMMFASTLQNLPYSVQTLLIFREFDSLTRQFMGLLLHDTPSTITHESIMNFEVDVNYLESIIPRIFPSTPGTIDSNGYQSPMTPSTPTFPNANGVDAPTLFENNIKSLEATFMELKQCIELLKTQGKDYNEPEIRLRKYSRIRQEDAALLLSKIQHFVSSVEGANGDDTSVMDSSSIFNSESASVIDSNTSRIAKFFNRR
2 |  | binds | B1
